This series deals with the molecule itself. Kind of series: crystal structure.

B1: Catabolite Activator Protein (CAP) (natural protein)
chain: VLGKPQTDPTLEWFLSHCHIHKYPSKSTLIHQGEKAETLYYIVKGSVAVLIKDEEGKEMILSYLNQGDFIGELGLFEEGQERSAWVRAKTACEVAEISYKKFRQLIQVNPDILMRLSAQMARRLQVTSEKVGNLAFLDVTGRIAQTLLNLAKQPDAMTHPDGMQIKITRQEIGQIVGCSRETVGRILKMLEDQNLISAHGKTIVVYGTR
Turning to B1, the binding result is “binds”.
